Assay results reported in publication PMC4877600.
pKd: −log10 of the molar value.

System: human immunoglobulin E (IgE) (Homo sapiens)
Assay: fluorescence bead-binding assay (thermal elution)
Conditions: IgE on beads; selection buffer as printed: 44.5 mM Tris base, 44.5 mM bisboronic acid (sic), 50 mM NaCl, pH 8.5; 0-100 nM DNA, room temperature, 2 h; IgE beads 3x10^4 per …

For “GCCTGTTGTGAGCCTCCTGTCGAAACTAGACCGGGAGCAAAACGGCAGATTGGGGCAAGGCCGGTTGAGCGTTTATTCTTGTCTCCC [SIGE7]”, the pKd was 7.74.

“GCCTGTTGTGAGCCTCCTGTCGAAGATGTAGGCCATCCTGTGGGGGTACGGGGCGGGCTGTGGTTTGAGCGTTTATTCTTGTCTCCC [SIGE5]” gave a pKd of 8.00.
